{"source": "patent US20250163117A1", "about": "(CURE GENETICS, published 2025)", "binders": {"B1": {"name": "CP-trIL-2 072 (ligand)", "chain": "ELKHLQSLEEELKDLEEVLNLAQSKNFHLRPRDLISNINVIVLELKGSETTPTSSSTKKTQLQLEHLLLDLQMILNGINNYKNPTIVEFLNRWITFSQSIISTLT"}}, "assay_in_all_cases": "cell-based or functional assay", "key": {"[1]": {"biological_target": "T1, mouse high-affinity IL-2 receptor IL-2Rαβγ on cells (mouse, UniProt P01590 22-268; P16297 27-539; P34902 23-369)", "T1 sequence (looked up) 1": "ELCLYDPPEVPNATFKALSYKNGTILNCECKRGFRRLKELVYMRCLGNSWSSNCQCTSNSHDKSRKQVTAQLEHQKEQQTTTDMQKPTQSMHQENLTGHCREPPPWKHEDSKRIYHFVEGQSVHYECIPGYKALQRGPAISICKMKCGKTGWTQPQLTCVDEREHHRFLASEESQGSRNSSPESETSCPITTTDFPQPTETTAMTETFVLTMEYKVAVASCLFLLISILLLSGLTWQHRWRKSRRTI", "T1 sequence (looked up) 2": "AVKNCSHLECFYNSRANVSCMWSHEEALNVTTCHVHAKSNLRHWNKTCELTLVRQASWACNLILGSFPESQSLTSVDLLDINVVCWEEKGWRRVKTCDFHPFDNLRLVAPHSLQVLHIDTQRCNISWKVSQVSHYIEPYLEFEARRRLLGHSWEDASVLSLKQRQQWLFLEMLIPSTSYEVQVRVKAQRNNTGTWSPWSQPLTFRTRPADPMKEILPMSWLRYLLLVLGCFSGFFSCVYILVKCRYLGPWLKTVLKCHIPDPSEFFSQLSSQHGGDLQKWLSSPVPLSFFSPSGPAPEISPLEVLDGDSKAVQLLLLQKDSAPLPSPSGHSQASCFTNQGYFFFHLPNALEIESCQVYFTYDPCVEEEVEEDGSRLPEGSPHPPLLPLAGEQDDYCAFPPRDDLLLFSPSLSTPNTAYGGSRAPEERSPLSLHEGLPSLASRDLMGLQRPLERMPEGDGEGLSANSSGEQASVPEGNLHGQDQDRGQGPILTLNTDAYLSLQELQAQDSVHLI", "T1 sequence (looked up) 3": "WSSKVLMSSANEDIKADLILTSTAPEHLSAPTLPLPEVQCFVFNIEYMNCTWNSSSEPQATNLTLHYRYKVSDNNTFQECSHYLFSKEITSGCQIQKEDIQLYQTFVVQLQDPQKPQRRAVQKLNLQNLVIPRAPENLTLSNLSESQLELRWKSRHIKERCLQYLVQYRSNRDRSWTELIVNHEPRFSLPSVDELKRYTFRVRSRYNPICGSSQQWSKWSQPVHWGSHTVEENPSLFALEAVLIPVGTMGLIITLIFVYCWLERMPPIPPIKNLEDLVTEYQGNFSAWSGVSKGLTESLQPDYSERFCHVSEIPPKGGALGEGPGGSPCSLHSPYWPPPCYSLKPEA"}, "[2]": {"biological_target": "T2, mouse intermediate-affinity IL-2 receptor IL-2Rβγ on cells (mouse, UniProt P16297 27-539; P34902 23-369)", "T2 sequence (looked up) 1": "T1 sequence (looked up) 2", "T2 sequence (looked up) 2": "T1 sequence (looked up) 3"}, "[3]": {"biological_target": "T3, human intermediate-affinity IL-2 receptor IL-2Rβγ on cells (human, UniProt P14784 27-551; P31785 23-369)", "T3 sequence (looked up) 1": "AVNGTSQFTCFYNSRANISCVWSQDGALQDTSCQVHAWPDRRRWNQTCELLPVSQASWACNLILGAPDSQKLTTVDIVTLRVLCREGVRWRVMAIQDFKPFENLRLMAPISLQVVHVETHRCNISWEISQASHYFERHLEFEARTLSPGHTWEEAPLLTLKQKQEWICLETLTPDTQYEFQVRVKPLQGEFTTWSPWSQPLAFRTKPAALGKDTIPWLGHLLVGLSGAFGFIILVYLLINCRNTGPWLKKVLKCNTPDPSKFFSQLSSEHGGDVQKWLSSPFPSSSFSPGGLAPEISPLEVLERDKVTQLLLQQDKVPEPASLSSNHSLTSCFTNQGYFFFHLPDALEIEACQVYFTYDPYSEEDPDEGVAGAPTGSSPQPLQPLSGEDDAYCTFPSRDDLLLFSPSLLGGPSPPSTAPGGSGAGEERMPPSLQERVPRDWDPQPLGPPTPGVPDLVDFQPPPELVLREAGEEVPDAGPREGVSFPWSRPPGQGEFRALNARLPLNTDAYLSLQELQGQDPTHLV", "T3 sequence (looked up) 2": "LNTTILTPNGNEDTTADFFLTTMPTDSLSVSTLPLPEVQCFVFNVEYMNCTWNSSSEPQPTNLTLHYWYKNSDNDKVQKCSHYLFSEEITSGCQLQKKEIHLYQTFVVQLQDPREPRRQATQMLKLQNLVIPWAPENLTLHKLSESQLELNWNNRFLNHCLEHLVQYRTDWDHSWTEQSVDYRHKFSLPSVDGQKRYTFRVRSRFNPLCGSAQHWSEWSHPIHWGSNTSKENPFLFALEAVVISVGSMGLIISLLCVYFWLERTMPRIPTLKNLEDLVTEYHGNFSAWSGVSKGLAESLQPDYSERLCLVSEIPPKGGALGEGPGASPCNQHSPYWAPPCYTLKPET"}, "[4]": {"biological_target": "T1, mouse high-affinity IL-2 receptor …", "remark": "listed apart in the source"}, "[5]": {"biological_target": "T4, human high-affinity IL-2 receptor IL-2Rαβγ on cells (human, UniProt P01589 22-272; P14784 27-551; P31785 23-369)", "T4 sequence (looked up) 1": "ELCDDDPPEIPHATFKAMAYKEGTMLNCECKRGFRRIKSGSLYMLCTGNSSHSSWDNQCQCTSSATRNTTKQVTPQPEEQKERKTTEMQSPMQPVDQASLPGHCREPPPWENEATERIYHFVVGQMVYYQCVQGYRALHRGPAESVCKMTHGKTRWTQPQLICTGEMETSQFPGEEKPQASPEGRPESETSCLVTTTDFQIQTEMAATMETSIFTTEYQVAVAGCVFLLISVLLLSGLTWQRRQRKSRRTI", "T4 sequence (looked up) 2": "T3 sequence (looked up) 1", "T4 sequence (looked up) 3": "T3 sequence (looked up) 2"}, "[6]": {"biological_target": "T2, mouse intermediate-affinity IL-2 …", "remark": "listed apart in the source"}, "[7]": {"biological_target": "T3, human intermediate-affinity IL-2 …", "remark": "listed apart in the source"}, "[8]": {"biological_target": "T4, human high-affinity IL-2 receptor …", "remark": "listed apart in the source"}, "[9]": {"biological_target": "T3, human intermediate-affinity IL-2 …", "remark": "listed apart in the source"}}, "data": [{"binder": "B1", "values": [{"measurement": "% pSTAT5 in mouse splenocytes at Low IL-2v concentration (2.5 nM per paragraph 254); western blot, pSTAT5/STAT5 normalised to 001 High", "setting": "[1]", "value": 30.7, "unit": "%"}, {"measurement": "% pSTAT5 in mouse splenocytes at High IL-2v concentration (25 nM per paragraph 254); western blot, pSTAT5/STAT5 normalised to 001 High", "setting": "[2]", "value": 91.3, "unit": "%"}, {"measurement": "EC50 of STAT5 activation, human CD8 T cells (flow cytometry)", "setting": "[3]", "value": 45.7, "unit": "nM"}, {"measurement": "EC50 of STAT5 activation, human NK cells (flow cytometry)", "setting": "[3]", "value": 15.6, "unit": "nM"}, {"measurement": "EC50 of STAT5 activation, mouse Tregs (flow cytometry)", "setting": "[4]", "value": 129, "unit": "nM"}, {"measurement": "EC50 of STAT5 activation, human Tregs (flow cytometry)", "setting": "[5]", "value": 22, "unit": "nM"}, {"measurement": "EC50 of STAT5 activation, mouse CD8 T cells (flow cytometry)", "setting": "[6]", "value": 110, "unit": "nM"}, {"measurement": "EC50 of STAT5 activation, mouse NK cells (flow cytometry)", "setting": "[6]", "value": 113, "unit": "nM"}, {"measurement": "% pSTAT5 in human PBMC at High IL-2v concentration (25 nM per paragraph 254); western blot, pSTAT5/STAT5 normalised to 001 High", "setting": "[7]", "value": 41.4, "unit": "%"}, {"measurement": "% pSTAT5 in human PBMC at Low IL-2v concentration (2.5 nM per paragraph 254); western blot, pSTAT5/STAT5 normalised to 001 High", "setting": "[8]", "value": 6.5, "unit": "%"}, {"measurement": "EC50 (read off the curve): STAT5 phosphorylation in HH cells", "setting": "[9]", "value": "~20", "unit": "nM"}]}]}
